{
  "source": "patent US20210214414A1",
  "about": "(Pfizer, published 2021)",
  "binders": {"B1": {"name": "ROBO2-Fc 2.2 (Fc fusion)", "chain": "SRLRQEDFPPRIVEHPSDVIVSKGEPTTLNCKAEGRPTPTIEWYKDGERVETDKDDPRSHRMLLPSGSLFFLRIVHGRRSKPDEGSYVCVARNYLGEAVSRNASLEVALLRDDFRQNPTDVVVAAGEPAILECQPPRGHPEPTIYWKKDKVRIDDKEERISIRGGKLMISNTRKSDAGMYTCVGTNMVGERDSDPAELTVFERGGSGGSEPKSSDKTHTCPPCPAPEAAGAPSVFLFPPKPKDTLMISRTPEVTCVVVDVSHEDPEVKFNWYVDGVEVHNAKTKPREEQYNSTYRVVSVLTVLHQDWLNGKEYKCKVSNKALPAPIEKTISKAKGQPREPQVYTLPPSREEMTKNQVSLTCLVKGFYPSDIAVEWESNGQPENNYKTTPPVLDSDGSFFLYSKLTVDKSRWQQGNVFSCSVMHEALHNHYTQKSLSLSPG", "notes": "Labelled with Alexa Fluor 647 in the flow cytometry assay; also called ROBO-Fc 2.2; ROBO2-Fc 2.2-AF647"}},
  "key": {"Human SLIT2-N [1]": {"biological_target": "T1, Human SLIT2-N (human, UniProt O94813 31-1121, limits assumed)", "T1 construct": "domain: SLIT2-N (N terminal fragment); Soluble analyte in SPR, d2-labelled in HTRF, overexpressed on HEK293 cells in flow cytometry; also called human SLIT2-N (N terminal fragment)", "T1 sequence (looked up)": "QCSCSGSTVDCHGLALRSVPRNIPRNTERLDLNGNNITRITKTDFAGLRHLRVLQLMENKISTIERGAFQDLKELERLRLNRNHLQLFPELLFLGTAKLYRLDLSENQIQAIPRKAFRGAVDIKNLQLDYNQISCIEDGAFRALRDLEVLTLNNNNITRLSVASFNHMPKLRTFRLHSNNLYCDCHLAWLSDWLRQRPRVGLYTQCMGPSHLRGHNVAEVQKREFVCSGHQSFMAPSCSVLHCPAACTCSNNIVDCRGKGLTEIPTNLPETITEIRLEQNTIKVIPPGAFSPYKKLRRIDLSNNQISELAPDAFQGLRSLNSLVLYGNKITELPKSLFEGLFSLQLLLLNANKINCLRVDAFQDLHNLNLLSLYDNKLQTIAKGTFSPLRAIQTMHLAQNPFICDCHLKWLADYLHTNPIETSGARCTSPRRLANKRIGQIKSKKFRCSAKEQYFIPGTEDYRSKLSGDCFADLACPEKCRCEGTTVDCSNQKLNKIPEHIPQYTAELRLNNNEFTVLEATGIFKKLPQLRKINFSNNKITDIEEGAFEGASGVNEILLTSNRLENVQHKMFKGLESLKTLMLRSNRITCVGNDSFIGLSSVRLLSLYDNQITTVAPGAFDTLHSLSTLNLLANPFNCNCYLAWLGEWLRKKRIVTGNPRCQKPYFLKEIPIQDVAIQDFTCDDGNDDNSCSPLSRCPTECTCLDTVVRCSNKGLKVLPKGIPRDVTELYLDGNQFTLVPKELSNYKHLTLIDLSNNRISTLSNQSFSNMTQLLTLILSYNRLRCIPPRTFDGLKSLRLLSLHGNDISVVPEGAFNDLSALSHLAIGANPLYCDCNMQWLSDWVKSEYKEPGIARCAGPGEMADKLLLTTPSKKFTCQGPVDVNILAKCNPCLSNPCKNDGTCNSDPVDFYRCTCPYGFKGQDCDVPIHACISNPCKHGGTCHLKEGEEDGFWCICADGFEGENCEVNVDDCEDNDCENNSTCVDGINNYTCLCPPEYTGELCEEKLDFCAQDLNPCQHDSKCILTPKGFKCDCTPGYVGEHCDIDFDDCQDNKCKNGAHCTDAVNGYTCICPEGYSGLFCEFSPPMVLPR", "assay": "SPR, ROBO2-Fc 2.2 captured by anti-human Fc on a C1 chip, human SLIT2-N as analyte, 1:1 model", "procedure": "HBS-EP was used as a diluent. […] An 8 point 2-fold dilution series was performed on the SLIT2 ligands, ranging from 2 nM to 15.6 pM using HBS-EPB as the diluent. […] Association of the indicated SLIT2 ligand was followed for 120 s and dissociation monitored for 180 s. The apparent binding affinity was determined using a simple 1:1 interaction model of the kinetic rate constants."}, "Human SLIT2-N [2]": {"biological_target": "T1, Human SLIT2-N", "assay": "HTRF competition: d2-labelled human SLIT2-N binding to human ROBO2 on HEK293 cells (competitor: cell surface ROBO2)", "procedure": "After incubation, fluorescence at 665 nm and 620 nm was measured on an Envision multilabel plate reader. The HTRF Ratio was calculated as follows: fluorescence at 665 nm/fluorescence at 620 nm×10,000. […] The IC₅₀ for each SLITx-N was determined using an 11-point, 4-fold dilution series with a top concentration of 4000 nM."}},
  "data": [
    {"binder": "B1", "values": [
      {"measurement": "Kd", "setting": "Human SLIT2-N [1]", "result": 0.279, "unit": "nM"},
      {"measurement": "IC50", "setting": "Human SLIT2-N [2]", "result": 7, "unit": "nM"}
    ]}
  ]
}
